This note sets out measurements from paper PMC10075959 (Science Advances, 2023).

One data set concerns the molecule itself. In words: AUC.
In the case of MAGNGCDAALALLLLDRLNQLESKMSGKGQQQQGQTV [NLRS:G215C peptide, listing 1 of 2 here], the binding result is recorded as “binds”.

MAGNGSDAALALLLLDRLNQLESKMSGKGQQQQGQTV [NLRS:G215S peptide, listing 1 of 2 here]: the binding result is reported as “binds”.

A further data set deals with the molecule itself. The data set is described as follows: AUC. The source holds these as a separate data set.
MAGNGGDAALALMLLDRLNQLESKMSGKGQQQQGQTV [NLRS:L222M peptide]: the binding result is on record as “binds”.

As for MAGNGCDAALALMLLDRLNQLESKMSGKGQQQQGQTV [NLRS:L222M/G215C double mutant peptide], the binding result was “binds”.

With MAGNGCDAALALLLLDRLNQLESKMSGKGQQQQGQTV [NLRS:G215C peptide, listing 2 of 2 here], the binding result is reported as “binds”.

Take MAGNGSDAALALLLLDRLNQLESKMSGKGQQQQGQTV [NLRS:G215S peptide, listing 2 of 2 here]: the binding result is recorded as “binds”.
